Measured values reported in US10907134B2, “Mutated genes for the catalytic protein of oplophorus luciferase and use thereof” (JNC CORPORATION, priority 2013, dated 2021).
Residue numbers refer to the chain shown, from its start. Numbers in names are those of the source.

B1: KAZ-A54I: KAZ with single amino acid substitution A54I, SEQ ID NO: 6 (protein)
chain: FTLADFVGDWQQTAGYNQDQVLEQGGLSSLFQALGVSVTPIQKVVLSGENGLKIDIHVIIPYEGLSGFQMGLIEMIFKVVYPVDDHHFKIILHYGTLVIDGVTPNMIDYFGRPYPGIAVFDGKQITVTGTLWNGNKIYDERLINPDGSLLFRVTINGVTGWRLCENILA
B2: KAZ-A54I-Y138I: KAZ mutant with two amino acid substitutions A54I and Y138I, SEQ ID NO: 14 (protein)
chain: B1 chain with Y138I
B3: KAZ: wild 19 kDa catalytic protein of Oplophorus luciferase (19kOLase), amino acid sequence SEQ ID NO: 2 (protein, listed as Oplophorus gracilirostris)
chain: B1 chain with I54A
B4: KAZ-V44I: KAZ with single amino acid substitution V44I, SEQ ID NO: 4 (protein)
chain: B1 chain with V44I, I54A
B5: KAZ-V44I-Y138I: KAZ mutant with two amino acid substitutions V44I and Y138I, SEQ ID NO: 12 (protein)
chain: B1 chain with V44I, I54A, Y138I
B6: KAZ-V44I-A54I-Y138I: KAZ mutant with three amino acid substitutions V44I, A54I and Y138I, SEQ ID NO: 16 (protein)
chain: B1 chain with V44I, Y138I
B7: KAZ-Y138I: KAZ with single amino acid substitution Y138I, SEQ ID NO: 8 (protein)
chain: B1 chain with I54A, Y138I
B8: KAZ-V44I-A54I: KAZ mutant with two amino acid substitutions V44I and A54I, SEQ ID NO: 10 (protein)
chain: B1 chain with V44I

experiment: Substrate specificities of KAZ mutants (ZZ-fused, crude enzyme), 6h-f-CTZ; format: biochemical; settings: 1 μg substrate, integrated for 60 seconds
Protocol: (§1) The coelenterazine analogues used for substrate specificity studies were synthesized by the methods described in publications. Specifically, bis-coelenterazine was synthesized by the method described in Nakamura et al. (1997) Tetrahedron Lett. 38: 6405-6406; furimazine by the method described in Hall et al. (2012) ACS Chem. Biol. […]; and, 6h-coelenterazine, f-coelenterazine and 6h-f-coelenterazine by the methods described in Inouye et al (2013) Biochem. Biophys. Res. Commun. 437: 23-28.
(§2) DTT was added to the crude enzyme solutions obtained in EXAMPLE 17 at a final concentration of 1 mM and the mixtures were allowed to stand in an ice water for more than 5 hours in the same manner as Example 8. A luminescence reaction was started by the addition of 1 μL each of the crude enzyme solutions to 100 μL of TE containing 1 μg of coelenterazine (manufactured by JNC Corp.) or its analogues. The luminescence activities were determined using a luminometer (manufactured by Atto Inc.: AB2200) for 60 seconds, and the maximum intensity of luminescence (Imax) was shown as relative luminescence activity.

| Relative Luminescence Activity 6h-f-CTZ Int. | Molecule |
| --- | --- |
| 2.0 | B1 |
| 5.7 | B2 |
| 0.7 | B3 |
| 0.7 | B4 |
| 4.2 | B5 |
| 9.6 | B6 |
| 0.8 | B7 |
| 4.0 | B8 |

same assay, conditions: 1 μg substrate, maximum intensity of luminescence

| Relative Luminescence Activity 6h-f-CTZ Imax | Molecule |
| --- | --- |
| 1.6 | B1 |
| 5.2 | B2 |
| 0.6 | B3 |
| 0.6 | B4 |
| 3.6 | B5 |
| 9.5 | B6 |
| 0.6 | B7 |
| 3.2 | B8 |

experiment: Luminescence activity of KAZ mutants (pCold II, E. coli) in supernatant and precipitate of crude enzyme solution; format: biochemical; settings: Table 3; pCold II, E. coli BL21; 5 μL precipitate; 0.5 μg coelenterazine; 60 seconds
Protocol: In order to express the KAZ mutants in E. coli, the recombinant plasmid prepared in EXAMPLE 3 was used. The E. coli BL21 strain (Novagen, Madison, Wis.) was used as a host cell. The BL21 strain carrying the recombinant plasmid was incubated in 5 mL of Luria-Bertani medium (hereinafter designated as LB medium) containing ampicillin (50 μg/mL) at 37° C. for 18 hours. This seed culture, 0.1 mL, was inoculated to 10 mL of LB medium and incubated for 3 hours, followed by cooling in an ice-water bath for 1 hour. IPTG was added to the culture medium at a final concentration of 1 mM, followed by incubation at 15° C. for further 20 hours. After completion of the incubation, 1 mL of the cultured medium was harvested by centrifugation at 10,000 rpm for 2 minutes. The thus collected E. coli cells were suspended in 0.5 mL of 30 mM Tris-HCl (pH 7.6)-10 mM EDTA (manufactured by Wako Pure Chemical Industries, Ltd.) (hereinafter designated as TE). The E. coli cells were disrupted by sonication for 3 seconds using a Branson Model 250 Sonifier (Danbury, Conn.) to give a crude enzyme solution. After 0.5 mL of the crude enzyme solution was further centrifuged at 10,000 rpm for 2 minutes to separate the supernatant from the precipitate, the precipitate was suspended in 0.5 mL of TE. Then 20 μL each of the supernatant and precipitate were analyzed by SDS-PAGE to confirm the presence or absence of soluble and insoluble proteins. The results are shown in FIG. 1, wherein M and 1 to 17 denote: M: molecular weight size markers; 1: KAZ; 2 KAZ-A4E; 3: KAZ-Q11R; 4: KAZ-Q18L; 5: KAZ-L27V; 6: KAZ-A33N; 7: KAZ-K43R; 8: KAZ-V44I; 9: KAZ-A54I; 10: KAZ-F68D; 11: KAZ-L72Q; 12: KAZ-M75K; 13: KAZ-I90V; 14: KAZ-P115E; 15: KAZ-Q124K; 16: KAZ-Y138I; 17: KAZ-N166R and 18: dnKAZ.
A luminescence reaction was started by the addition of 5 μL each of the supernatant and precipitate obtained in EXAMPLE 4 to 100 μL of TE containing 0.5 μg of coelenterazine (manufactured by JNC Corp.). The luminescence activity was measured for 60 seconds using a luminometer (manufactured by Atto Corp.: AB2200) and expressed in terms of relative luminescence activity (Imax).
To express the KAZ mutants with two amino acid substitutions and three amino acid substitutions in E. coli using a pCold II vector, the recombinant plasmid constructed in EXAMPLE 13 and pCold-V44I-KAZ, pCold-A54I-KAZ, pCold-Y138I-KAZ prepared in EXAMPLE 3 were used. The supernatant and precipitate of each crude enzyme solution were prepared in the same manner as EXAMPLE 4, using the E. coli BL21 starin (Novagen, Madison, Wis.) as a host cell. The supernatant and precipitate, 20 μL each, were subjected to SDS-PAGE analysis to confirm the presence or absence of soluble proteins and insoluble proteins. In FIG. 3, M and 1 to 9 are as follows. M: molecular weight markers; 1: dnKAZ; 2: KAZ; 3: KAZ-V44I-A54I; 4: KAZ-V44I-Y138I; 5: KAZ-A54I-Y138I; 6: KAZ-V44I-A54I-Y138I; 7: KAZ-V44I; 8: KAZ-A54I; and 9: KAZ-Y138I.
The luminescence activities of 5 μL each of the supernatant and precipitate obtained in EXAMPLE 14 were determined in the same manner as EXAMPLE 5. The luminescence activity was assayed with a luminometer (manufactured by Atto Inc.: AB2200) for 60 seconds, and the maximum intensity of luminescence (Imax) was shown as relative luminescence activity.

| Molecule | Relative Luminescence Activity (Imax) Precipitate |
| --- | --- |
| B1 | 13 |
| B3 | 0.1 |
| B4 | 0.6 |
| B7 | 1.4 |

same assay, conditions: Table 3; pCold II, E. coli BL21; 5 μL supernatant; 0.5 μg coelenterazine; 60 seconds

| Molecule | Relative Luminescence Activity (Imax) Supernatant |
| --- | --- |
| B1 | 150 |
| B3 | 1.0 |
| B4 | 6.5 |
| B7 | 32 |

same assay, conditions: Table 8; pCold II, E. coli BL21; 5 μL precipitate; coelenterazine; 60 seconds

| Molecule | Relative Luminescence Activity (Imax) Precipitate |
| --- | --- |
| B1 | 13 |
| B2 | 21 |
| B3 | 0.1 |
| B4 | 0.6 |
| B5 | 5.0 |
| B6 | 40 |
| B7 | 1.4 |
| B8 | 5.8 |

same assay, conditions: Table 8; pCold II, E. coli BL21; 5 μL supernatant; coelenterazine; 60 seconds

| Molecule | Relative Luminescence Activity (Imax) Supernatant |
| --- | --- |
| B1 | 151 |
| B2 | 982 |
| B3 | 1.0 |
| B4 | 6.5 |
| B5 | 71 |
| B6 | 1,730 |
| B7 | 32 |
| B8 | 295 |

same assay, conditions: pCold II crude enzyme solution; coelenterazine

| Molecule | Luminescence activity relative to that of dnKAZ |
| --- | --- |
| B1 | approximately 1/12 |

same assay, conditions: pCold II, supernatant; coelenterazine (Table 8)

| Molecule | Luminescence activity in the supernatants, fold higher as compared to the wild KAZ [fold] |
| --- | --- |
| B2 | 982 |
| B5 | 71 |
| B8 | 295 |

experiment: Substrate specificities of KAZ mutants (ZZ-fused, crude enzyme), f-CTZ; format: biochemical; settings: 1 μg substrate, integrated for 60 seconds
Protocol: as §1, §2

| Relative Luminescence Activity f-CTZ Int. | Molecule |
| --- | --- |
| 4.9 | B1 |
| 9.2 | B2 |
| 0.8 | B3 |
| 2.0 | B4 |
| 7.4 | B5 |
| 9.5 | B6 |
| 2.4 | B7 |
| 5.2 | B8 |

same assay, conditions: 1 μg substrate, maximum intensity of luminescence

| Relative Luminescence Activity f-CTZ Imax | Molecule |
| --- | --- |
| 8.2 | B1 |
| 19.7 | B2 |
| 0.9 | B3 |
| 2.1 | B4 |
| 13.3 | B5 |
| 43.8 | B6 |
| 2.4 | B7 |
| 11.3 | B8 |
